B1: Triacylglycerol hydrolase DDHD2, residues 389 to 447; numbered along this chain, O94830 (parent)
chain: TLEEDLKKLQLSEFFDIFEKEKVDKEALALCTDRDLQEIGIPLGPRKKILNYFSTRKNS
B2: Probable E3 ubiquitin-protein ligase MID2, residues 191 to 235; numbered along this chain, Q9UJV3 (parent)
chain: RGITCLDHENEKVNMYCVSDDQLICALCKLVGRHRDHQVASLNDR

Variants of: B1
Experiment: abundance fitness (aPCA) (normalised: wild type 0, dead -1); higher = more abundant; growth selection in yeast, the domain comes from the species named
Conditions: Homo sapiens

Abundance fitness, by site and new letter:
F53: T -0.247, E 0.221, M 0.023, K 0.031, N -0.073, Y -0.027, R -0.323, W -0.38, G -0.213, L -0.324, D -0.03, S -0.237, Q -0.118, H -0.285, V -0.363, I -0.085
S59: Q -0.293, M -0.068, F 0.03, E 0.075, N -0.569, C -0.058, P -0.064, H -0.056, A -0.235, T -0.085, R -0.352, V -0.153, K -0.547, Y -0.109, L -0.473, D 0.23, G -0.151, W -0.074
N58: H -0.377, A -0.193, W -0.373, M 0.208, T -0.049, F -0.422, Y -0.08, R -0.332, L -0.116, V -0.015, E 0.078, P -0.199, Q -0.236, C -0.252
S54: D -0.146, H -0.208, Y -0.443, I -0.146, V -0.409, E -0.033, L -0.306, P -0.309, M 0.17, W -0.471, N -0.152, Q 0.055, G -0.113, T -0.097, R -0.122, C -0.285, K -0.071
R56: T 0.033, C -0.065, S -0.027, P 0.084, K -0.143, E 0.123, N -0.236, V 0.035, L -0.086, M 0.095, G -0.105, F -0.074, Y 0.019, W -0.1, H -0.207, Q 0.143, D 0.05, A 0.134
K57: T -0.155, M 0.067, L -0.219, A -0.102, Y -0.244, I -0.075, N -0.287, V -0.175, S -0.115, Q -0.076, C -0.269, H -0.291, W -0.525, G -0.031, F -0.224
T55: A 0.058, Q 0.006, C 0.041, G 0.007, I 0.122, D -0.067, Y -0.159, H -0.146, N 0.166, K 0.178, L -0.072, F -0.482, V -0.152, E 0.214, S -0.007, P -0.079, W -0.295

Variants of: B2
Experiment: as above
Conditions: Homo sapiens

Abundance fitness of substitutions, site by site:
L6: A 0.145, W -0.253, V 0.021, N -0.22, K 0.213, E 0.151, T 0.14, I 0.16, Y 0.064, S 0.118, C 0.069, P 0.156, Q 0.176, G 0.039, F -0.028, R 0.103, D 0.124, M 0.072
R1: V -0.195, T -0.118, D -0.079, F 0.127, N -0.017, G -0.04, S -0.187, H -0.081, E 0.019, W -0.502, K -0.211, Q 0.069, A -0.158, L -0.194, M -0.044, Y -0.807, I -0.17
M15: D 0.001, C 0.259, A 0.063
E9: M 0.022, F 0.1, A 0.098, D 0.017, I -0.128, L 0.032, S -0.033, Y -0.051, W -0.252, C 0.028, T 0.151, N 0.056, R -0.024, V -0.299, K 0.073, P 0.173, Q 0.021
K12: G -0.102, Q -0.103, S 0.095, E 0.104, V -0.083, A -0.095, D -0.012, I -0.244, W -0.229, C -0.389, L -0.049, R -0.042, P 0.124
N14: T 0.049, K 0.015, V -0.055, S 0.06, G -0.021, C -0.204, M -0.487, R -0.087, Q 0.119, P -0.434, E 0.104, L -0.124, D -0.132, W -0.482, A 0, H 0.117
H8: C -0.408, R -0.655, T -0.555, Y -0.831, F -0.808, D -0.335, L -0.703, W -0.97, K -0.533, I -0.976, M -0.588, V -0.809, E -0.47, G -0.582
T4: H -0.071, A -0.238, V -0.235, L -0.376, Q -0.257, D -0.16, Y 0.133, C -0.18, S -0.105, G -0.217, R -0.205, I 0.032, W -0.219, F 0.001, N -0.01, E -0.209
N10: A -0.348, L -0.102, I -0.176, G -0.198, D -0.072, W -0.394, M -0.173, Q -0.313, E -0.55, H -0.036, K -0.226, T -0.26, F -0.577, S -0.156, R -0.138, C -0.175, V -0.416, P -0.414
I3: N 0.162, W -0.229, Y 0.072, Q -0.181, M 0.111, D 0.123, C -0.101, H -0.195, V -0.188, R -0.079, T 0.08, G 0.043, L -0.167, S -0.081, E 0.036
C5: G -0.461, S -0.448, P -0.717, F -0.951, K -0.379, M -0.462, L -0.985, D -0.39, Q -0.585, W -0.706, N -0.487, H -0.555, E -0.307, V -0.589
G2: Y 0.023, P -0.222, S -0.069, Q -0.181, A -0.135, M -0.081, L -0.218, D 0.108, I -0.522, E 0.115, K 0.042, V -0.216, C -0.511, W -0.403, T -0.06, R -0.033
E11: V -0.519, Y 0.129, R -0.171, C -0.063, P -0.838, G -0.245, K -0.33, A -0.177, S -0.236, T -0.223, L -0.524, Q -0.097, I -0.334, F -0.248, M -0.174, W -0.215
V13: S -0.092, W -0.619, R -0.077, G -0.143, A -0.104, E -0.215, Q -0.047, I 0.1, T -0.179
D7: C -0.192, P -0.55, T -0.223, R -0.238, H -0.015, S -0.173, N -0.107, L -0.162, A -0.128, I -0.015, Q -0.147, W -0.294, F -0.082, M -0.239, G -0.364, Y -0.112, V -0.17

— the Human Domainome abundance scans (Beltran et al. 2025)
